For experiment [1], the target named is T1, TMEM97 (S2R) containing HEK293T membranes (Homo sapiens, UniProt Q5BJF2).
T1 construct: expressed in transfected cells; host or cells: HEK293T (transient overexpression; membranes prepared by UNC PDSP)
Kind of experiment: Radioligand binding/competition assay with [3H]-DTG (UNC PDSP). As to conditions: secondary radioligand binding assay; hot ligand [3H]-DTG.

The test system of a further experiment is Candida albicans. Particulars: cited from earlier work.
Experiment [2] relates to Human corneal epithelial cells. Put plainly: Calcium Green-2 calcium signaling in human corneal epithelial cells. Format: cell-based. How it is done: Calcium Signaling. Human corneal epithelial cells were treated with Hst1 or Hst5, stained with Calcium Green-2, and relative fluorescence intensity was monitored at 1, 2 and 4 hours. […] This normalization of cellular calcium levels seen after toxicity from benzalkonium chloride treatment is analogous to toxic effects seen in chronic pain and other conditions. As such, histatin peptides may of use in the amelioration of chronic pain.

For the next experiment, the system named is human corneal epithelium. Kind of experiment: Hyperosmolarity-induced apoptotic signals (Caspase 3/7). It counts as cell-based. As to conditions: 450 mOsm. The source says:
(§1) Apoptosis. […] BAK and hOsm are standard inducers of corneal epithelial and neuronal cell death and toxicity, phenomena which are associated with ocular surface pain and chronic pain syndromes.

Experiment [3] has as its system Human corneal epithelial cells. Put plainly: Cell viability of BAK-treated human corneal epithelial cells. Particulars: benzalkonium chloride (BAK) treatment. Format: cell-based.
Text: as §1

Experiment [4] concerns the target T2, GST-TMEM97 (108-176), recombinant from wheat germ (Abnova) (UniProt Q5BJF2 108-176).
T2 construct: not shown: GST tag
Put plainly: SPR, GST-TMEM97 (108-176) immobilized on CM5 chip, Hst1 as analyte; GST-tagged wheat-germ TMEM97 (108-176); SPR.

The target in experiment [5] is T3, Synthetic TMEM97 (144-176) peptide.
T3 construct: Synthetic peptide; also called (predicted) cytoplasmic segment
T3 peptide: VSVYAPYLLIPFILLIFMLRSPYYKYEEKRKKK
Kind of experiment: ITC, Hst1 titrated into the C-terminal TMEM97 peptide (taken as 144-176). A general note: Isothermal titration calorimetry measures the heat released or taken up as one component is titrated into another.

Experiment [6] concerns the target T4, Synthetic TMEM97 (108-176) peptide.
T4 construct: Synthetic peptide; also called full C-terminal synthetic TMEM97
T4 peptide: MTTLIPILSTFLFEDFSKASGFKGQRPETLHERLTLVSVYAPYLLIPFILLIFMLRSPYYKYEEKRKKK
Kind of experiment: ITC, Hst1 titrated into synthetic TMEM97 (108-176).

The target of experiment [7] is T5, Synthetic TMEM97 (108-143) peptide.
T5 construct: Synthetic peptide; also called (predicted) luminal segment
T5 peptide: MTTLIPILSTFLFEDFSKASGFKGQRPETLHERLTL
Put plainly: SPR. Background: SPR reads the build-up and loss of mass on a sensor chip optically.

For experiment [8], the target named is T3, Synthetic TMEM97 (144-176) peptide. Kind of experiment: SPR.
Experiment [9] concerns the target T2, GST-TMEM97 (108-176), recombinant from …. Kind of experiment: SPR.
The target in experiment [10] is T4, Synthetic TMEM97 (108-176) peptide. Kind of experiment: SPR.
Experiment [11] has the same target. Kind of experiment: SPR, synthetic TMEM97 (108-176) immobilized, Hst1 as analyte; SPR; synthetic TMEM97 (108-176).
Experiment [12] deals with T3, Synthetic TMEM97 (144-176) peptide. Kind of experiment: ITC, Hst1 titrated into the C-terminal TMEM97 peptide (taken as 144-176); ITC, not SPR; C-terminal fragment taken as 144-176.
Experiment [13] deals with T4, Synthetic TMEM97 (108-176) peptide. Kind of experiment: ITC, Hst1 titrated into synthetic TMEM97 (108-176); ITC, not SPR; TMEM97 (108-176).
Experiment [14] concerns the target T3, Synthetic TMEM97 (144-176) peptide. Kind of experiment: SPR, synthetic TMEM97 (144-176) immobilized, Hst1 as analyte; SPR; synthetic TMEM97 (144-176).
The target in experiment [15] is T6, Recombinant full-length TMEM97 (from HEK293 cells, OriGene) (UniProt Q5BJF2 1-176).
T6 construct: Bought protein, said to be full-length; Immobilized on a CM5 chip; also called MAC30
Kind of experiment: SPR, TMEM97 immobilized on CM5 chip.

Square brackets hold non-standard residues; d marks the D form. Ends that are not written are not given here. pS = N[C@@H](COP(=O)(O)O)C(=O)O

T1 sequence (Q5BJF2 whole entry, species assumed): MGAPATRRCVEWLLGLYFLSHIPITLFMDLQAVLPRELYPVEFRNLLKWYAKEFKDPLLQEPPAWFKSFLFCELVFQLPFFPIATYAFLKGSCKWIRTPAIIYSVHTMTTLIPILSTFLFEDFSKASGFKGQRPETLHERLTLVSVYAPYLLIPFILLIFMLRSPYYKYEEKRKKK

On to `CC(C)C[C@H](NC(=O)[C@H](Cc1ccc(O)cc1)NC(=O)[C@H](CC(N)=O)NC(=O)[C@H](CO)NC(=O)[C@H](CCCNC(=N)N)NC(=O)[C@H](Cc1ccc(O)cc1)NC(=O)CNC(=O)[C@H](CCCNC(=N)N)NC(=O)[C@H](Cc1c[nH]cn1)NC(=O)[C@H](CO)NC(=O)[C@H](Cc1c[nH]cn1)NC(=O)[C@H](Cc1c[nH]cn1)NC(=O)[C@H](CCCCN)NC(=O)[C@H](CCC(=O)O)NC(=O)[C@H](Cc1c[nH]cn1)NC(=O)[C@H](Cc1ccccc1)NC(=O)[C@H](CCCCN)NC(=O)[C@H](CCCNC(=N)N)NC(=O)[C@H](CCCCN)NC(=O)[C@H](Cc1ccc(O)cc1)NC(=O)CNC(=O)[C@H](Cc1c[nH]cn1)NC(=O)[C@H](Cc1c[nH]cn1)NC(=O)[C@H](CCCNC(=N)N)NC(=O)[C@H](CCCCN)NC(=O)[C@H](C)NC(=O)[C@H](Cc1c[nH]cn1)NC(=O)[C@H](CO)NC(=O)[C@@H](N)CC(=O)O)C(=O)N[C@@H](Cc1ccc(O)cc1)C(=O)N[C@@H](CC(=O)O)C(=O)N[C@@H](CC(N)=O)C(=O)O` [Hst3], for which the affinity in experiment [1], expressed as Ki, was 1090 nM.

Regarding “AKRHHGYKRKFH [Histatin P-113, histatin-derived antimicrobial peptide]”, the fungicidal activity result with Candida albicans is reported as “fungicidal activity”.

For the molecule `C[C@H](NC(=O)[C@H](Cc1c[nH]cn1)NC(=O)[C@H](CO)NC(=O)[C@@H](N)CC(=O)O)C(=O)N[C@@H](CCCCN)C(=O)N[C@@H](CCCNC(=N)N)C(=O)N[C@@H](Cc1c[nH]cn1)C(=O)N[C@@H](Cc1c[nH]cn1)C(=O)NCC(=O)N[C@@H](Cc1ccc(O)cc1)C(=O)N[C@@H](CCCCN)C(=O)N[C@@H](CCCNC(=N)N)C(=O)N[C@@H](CCCCN)C(=O)N[C@@H](Cc1ccccc1)C(=O)N[C@@H](Cc1c[nH]cn1)C(=O)N[C@@H](CCC(=O)O)C(=O)N[C@@H](CCCCN)C(=O)N[C@@H](Cc1c[nH]cn1)C(=O)N[C@@H](Cc1c[nH]cn1)C(=O)N[C@@H](CO)C(=O)N[C@@H](Cc1c[nH]cn1)C(=O)N[C@@H](CCCNC(=N)N)C(=O)NCC(=O)N[C@@H](Cc1ccc(O)cc1)C(=O)O` [Hst5], the Ki – broadly, a measure of affinity in units of concentration, obtained from inhibition or displacement – in experiment [1] was determined as 582 nM. Also, the “calcium signaling (relative fluorescence intensity)” value in experiment [2] (1, 2 and 4 hours) is recorded as “increases calcium signaling”. Also, the “elevated calcium levels after benzalkonium chloride” value in experiment [2] (cells treated with 0.001% BAK) is “reduced elevated calcium levels”. Also, the “hyperosmolarity-induced apoptotic signals (Caspase 3/7)” value with human corneal epithelium is “abrogates the effects of toxic hyperosmolarity”. In experiment [3], the “BAK-induced loss of cell viability” value is reported as “abrogated”.

B1: Histatin 1 (Hst1) (peptide)
peptide: D[pS]HEKRHHGYRRKFHEKHHSHREFPFYGDYGSNYLYDN
notes: Synthetic linear peptide made by Fmoc solid-phase synthesis; also called Hst1(1-38); H1
For B1, the Kd (usually the constant that tells how readily two partners part at equilibrium) stood at 1600 nM in experiment [4]; 2400 nM in experiment [8]; 1500 nM in [9]; 2400 nM in experiment [10]; 2800 nM in experiment [11]; 460 nM in experiment [12]. In addition, the results for the Kd in experiment [13] and in experiment [14] were 890 nM and 2700 nM, respectively. In addition, the ΔH was -790 kcal/mol in [5] and -4.9 kcal/mol in [6]. Moreover, the ΔS in [5] is -2280 cal/mol K; in experiment [6], 11.6 cal/mol K. The binding result in experiment [7] is “no binding”.

As to DSHEKRHHGYRRKFHEKHHSHREFPF (not fully specified (residue 2); ends and bridges not checked, Fragment of Hst1) [Hst1(1-26)], the binding result in experiment [7] is “no binding”. Besides, the Kd worked out at 1700 nM in experiment [8], 2100 nM in experiment [9] and 1300 nM in experiment [10].

As for DSHEKRHHGYRRKFHEKHH (not fully specified (residue 2); ends and bridges not checked) [Hst1(1-19)], the values for the Kd in [8], in [9] and in experiment [10] were 8800 nM, 3600 nM and 12700 nM, respectively.

Turning to DSHEKRHHGYRRKF (not fully specified (residue 2); ends and bridges not checked, Fragment of Hst1) [Hst1(1-14)], the binding result in experiment [7], in experiment [8] and in experiment [10] was “no binding” each time.

B2: Hst1 scrambled peptide (Hst1SP) (peptide)
peptide: HYHKFHRYYDPGSNLYKEHNHGFHHGYKDEFRRE[pS]RDS
notes: Synthetic scrambled control of Hst1; also called scrambled peptide control version of Hst1
As to B2, the binding result in experiment [15] is on record as “no binding”.

These data come from US20230190870A1, “Method for Treating Lysosomal Storage Diseases with Histatin Peptides” (THE BOARD OF TRUSTEES OF THE UNIVERSITY OF ILLINOIS, priority 2020, published 2023).
